Reference: PMC10754036 (Nature structural & molecular biology, 2018)

Target: PSD95, His tagged recombinant (UniProt P78352 1-724)
Assay: BLI

Sequence of PSD95, His tagged recombinant (P78352 whole entry): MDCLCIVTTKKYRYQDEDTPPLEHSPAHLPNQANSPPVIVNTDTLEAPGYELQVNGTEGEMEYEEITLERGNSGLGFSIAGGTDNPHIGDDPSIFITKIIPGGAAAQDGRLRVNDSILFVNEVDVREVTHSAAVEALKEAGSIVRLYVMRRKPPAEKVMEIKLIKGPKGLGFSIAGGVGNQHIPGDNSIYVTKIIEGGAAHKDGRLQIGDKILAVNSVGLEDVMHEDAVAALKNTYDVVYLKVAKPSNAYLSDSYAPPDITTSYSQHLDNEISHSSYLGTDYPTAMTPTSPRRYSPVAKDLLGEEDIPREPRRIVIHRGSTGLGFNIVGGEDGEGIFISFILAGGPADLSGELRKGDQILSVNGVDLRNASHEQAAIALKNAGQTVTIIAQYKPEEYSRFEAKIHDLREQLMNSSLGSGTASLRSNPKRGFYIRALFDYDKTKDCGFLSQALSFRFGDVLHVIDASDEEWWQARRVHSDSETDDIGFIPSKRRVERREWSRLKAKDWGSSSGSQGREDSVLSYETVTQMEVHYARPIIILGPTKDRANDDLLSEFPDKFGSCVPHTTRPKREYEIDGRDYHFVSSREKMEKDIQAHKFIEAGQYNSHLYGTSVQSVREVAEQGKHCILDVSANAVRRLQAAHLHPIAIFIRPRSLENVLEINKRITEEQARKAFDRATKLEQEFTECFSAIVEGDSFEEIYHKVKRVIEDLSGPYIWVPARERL

B1: NS1 of A/Brevig Mission/1/1918 (H1N1) influenza A virus, His tagged recombinant (natural protein)
chain: MDSNTVSSFQVDCFLWHVRKRFADQELGDAPFLDRLRRDQKSLRGRGSTLGLDIETATRAGKQIVERILKEESDEALKMTIASVPASRYLTDMTLEEMSRDWFMLMPKQKVAGSLCIRMDQAIMDKNIILKANFSVIFDRLETLILLRAFTEEGAIVGEISPLPSLPGHTDEDVKNAVGVLIGGLEWNDNTVRVSETLQRFAWRSSNENGRPPLPPKQKRKMARTIKSEV
How did the Kd turn out when B1 was run?
The Kd was 1600 nM.
